# Substitutions are numbered along the chain they refer to. In names and notes the source's numbering stands.
# B1: GLS3000 H27dA one-arm antibody (H chain CE115HA000) (antibody, human IgG1, kappa, L234A L235A, N297A, name in Kabat numbering)
# heavy: QVQLVESGGGVVQPGRSLRLSCAASGFTFSNAWMHWVRQAPGKGLEWVAQIKAKSNNYATYYAESVKGRFTISRDDSKNSLYLQMNSLKTEDTAVYYCRYVHYGAYYGVDAWGQGTTVTVSSASTKGPSVFPLAPSSKSTSGGTAALGCLVKDYFPEPVTVSWNSGALTSGVHTFPAVLQSSGLYSLSSVVTVPSSSLGTQTYICNVNHKPSNTKVDKKVEPKSCDKTHTCPPCPAPEAAGGPSVFLFPPKPKDTLMISRTPEVTCVVVDVSHEDPEVKFNWYVDGVEVHNAKTKPREEQYASTYRVVSVLTVLHQDWLNGKEYKCKVSNKALPAPIEKTISKAKGQPREPQVYTLPPSRCELTKNQVSLSCAVKGFYPSDIAVEWESNGQPENNYKTTPPVLDSDGSFFLVSKLTVDKSRWQQGNVFSCSVMHEALHNHYTQKSLSLSPDYKDDDDK
# chain: EPKSSDKTHTCPPCPAPELLGGPSVFLFPPKPKDTLMISRTPEVTCVVVDVSHEDPEVKFNWYVDGVEVHNAKTKPREEQYNSTYRVVSVLTVLHQDWLNGKEYKCKVSNKALPAPIEKTISKAKGQPREPQVCTLPPSRDELTKNQVSLWCLVKGFYPSDIAVEWESNGQPENNYKTTPPVLDSDGSFFLYSKLTVDKSRWQQGNVFSCSVMHEALHNRYTQKSLSLSP
# light: DIVMTQSPLSLPVTPGEPASISCRSSQSLVASNRNTYLHWYQQKPGQAPRLLIYKVSNRFSGVPDRFSGSGSGTDFTLKISRVEAEDVGVYYCGQGTQVPYTFGQGTKLEIKRTVAAPSVFIFPPSDEQLKSGTASVVCLLNNFYPREAKVQWKVDNALQSGNSQESVTEQDSKDSTYSLSSTLTLSKADYEKHKVYACEVTHQGLSSPVTKSFNRGEC
# notes: one-arm antibody
# B2: GLS3000 H27dT one-arm antibody (H chain CE115HA000) (antibody, human IgG1, kappa, L234A L235A, N297A, name in Kabat numbering)
# heavy: B1 heavy
# chain: B1 chain
# light: B1 light with A31T
# notes: one-arm antibody
# B3: GLS3000 H27dK one-arm antibody (H chain CE115HA000) (antibody, human IgG1, kappa, L234A L235A, N297A, name in Kabat numbering)
# heavy: B1 heavy
# chain: B1 chain
# light: B1 light with A31K
# notes: one-arm antibody
# B4: GLS3000 H27dV one-arm antibody (H chain CE115HA000) (antibody, human IgG1, kappa, L234A L235A, N297A, name in Kabat numbering)
# heavy: B1 heavy
# chain: B1 chain
# light: B1 light with A31V
# notes: one-arm antibody
# B5: GLS3000 H27dW one-arm antibody (H chain CE115HA000) (antibody, human IgG1, kappa, L234A L235A, N297A, name in Kabat numbering)
# heavy: B1 heavy
# chain: B1 chain
# light: B1 light with A31W
# notes: one-arm antibody
# B6: GLS3000 H27dE one-arm antibody (H chain CE115HA000) (antibody, human IgG1, kappa, L234A L235A, N297A, name in Kabat numbering)
# heavy: B1 heavy
# chain: B1 chain
# light: B1 light with A31E
# notes: one-arm antibody
# B7: GLS3000 H27dG one-arm antibody (H chain CE115HA000) (antibody, human IgG1, kappa, L234A L235A, N297A, name in Kabat numbering)
# heavy: B1 heavy
# chain: B1 chain
# light: B1 light with A31G
# notes: one-arm antibody
# B8: GLS3000 H27dS one-arm antibody (H chain CE115HA000) (antibody, human IgG1, kappa, L234A L235A, N297A, name in Kabat numbering)
# heavy: B1 heavy
# chain: B1 chain
# light: B1 light with A31S
# notes: one-arm antibody
# B9: GLS3000 H27dD one-arm antibody (H chain CE115HA000) (antibody, human IgG1, kappa, L234A L235A, N297A, name in Kabat numbering)
# heavy: B1 heavy
# chain: B1 chain
# light: B1 light with A31D
# notes: one-arm antibody
# B10: GLS3000 H27dI one-arm antibody (H chain CE115HA000) (antibody, human IgG1, kappa, L234A L235A, N297A, name in Kabat numbering)
# heavy: B1 heavy
# chain: B1 chain
# light: B1 light with A31I
# notes: one-arm antibody
# B11: GLS3000 H27dP one-arm antibody (H chain CE115HA000) (antibody, human IgG1, kappa, L234A L235A, N297A, name in Kabat numbering)
# heavy: B1 heavy
# chain: B1 chain
# light: B1 light with A31P
# notes: one-arm antibody
# B12: GLS3000 H27dL one-arm antibody (H chain CE115HA000) (antibody, human IgG1, kappa, L234A L235A, N297A, name in Kabat numbering)
# heavy: B1 heavy
# chain: B1 chain
# light: B1 light with A31L
# notes: one-arm antibody
# B13: GLS3000 H27dM one-arm antibody (H chain CE115HA000) (antibody, human IgG1, kappa, L234A L235A, N297A, name in Kabat numbering)
# heavy: B1 heavy
# chain: B1 chain
# light: B1 light with A31M
# notes: one-arm antibody
# B14: GLS3000 F55A one-arm antibody (H chain CE115HA000) (antibody, human IgG1, kappa, L234A L235A, N297A, name in Kabat numbering)
# heavy: B1 heavy
# chain: B1 chain
# light: B1 light with A31H, F60A
# notes: one-arm antibody
# B15: GLS3000 H27dR one-arm antibody (H chain CE115HA000) (antibody, human IgG1, kappa, L234A L235A, N297A, name in Kabat numbering)
# heavy: B1 heavy
# chain: B1 chain
# light: B1 light with A31R
# notes: one-arm antibody
# B16: GLS3000 H27dF one-arm antibody (H chain CE115HA000) (antibody, human IgG1, kappa, L234A L235A, N297A, name in Kabat numbering)
# heavy: B1 heavy
# chain: B1 chain
# light: B1 light with A31F
# notes: one-arm antibody
# B17: GLS3000 F55D one-arm antibody (H chain CE115HA000) (antibody, human IgG1, kappa, L234A L235A, N297A, name in Kabat numbering)
# heavy: B1 heavy
# chain: B1 chain
# light: B1 light with A31H, F60D
# notes: one-arm antibody
# B18: GLS3000 H27dQ one-arm antibody (H chain CE115HA000) (antibody, human IgG1, kappa, L234A L235A, N297A, name in Kabat numbering)
# heavy: B1 heavy
# chain: B1 chain
# light: B1 light with A31Q
# notes: one-arm antibody
# B19: GLS3000 H27dN one-arm antibody (H chain CE115HA000) (antibody, human IgG1, kappa, L234A L235A, N297A, name in Kabat numbering)
# heavy: B1 heavy
# chain: B1 chain
# light: B1 light with A31N
# notes: one-arm antibody
# B20: CE115HA000/GLS3000 Y32P one-arm antibody (antibody, human IgG1, kappa, L234A L235A, N297A, name in Kabat numbering)
# heavy: B1 heavy
# chain: B1 chain
# light: B1 light with A31H, Y37P
# notes: one-arm IgG1
# B21: CE115HA000/GLS3000 Y96H one-arm antibody (antibody, human IgG1, kappa, L234A L235A, N297A, name in Kabat numbering)
# heavy: B1 heavy
# chain: B1 chain
# light: B1 light with A31H, Y101H
# notes: one-arm IgG1
# B22: CE115HA000/GLS3000 Y96F one-arm antibody (antibody, human IgG1, kappa, L234A L235A, N297A, name in Kabat numbering)
# heavy: B1 heavy
# chain: B1 chain
# light: B1 light with A31H, Y101F
# notes: one-arm IgG1
# B23: CE115HA000/GLS3000 V94M one-arm antibody (antibody, human IgG1, kappa, L234A L235A, N297A, name in Kabat numbering)
# heavy: B1 heavy
# chain: B1 chain
# light: B1 light with A31H, V99M
# notes: one-arm IgG1
# B24: CE115HA000/GLS3000 V94H one-arm antibody (antibody, human IgG1, kappa, L234A L235A, N297A, name in Kabat numbering)
# heavy: B1 heavy
# chain: B1 chain
# light: B1 light with A31H, V99H
# notes: one-arm IgG1
# B25: CE115HA000/GLS3000 Y96L one-arm antibody (antibody, human IgG1, kappa, L234A L235A, N297A, name in Kabat numbering)
# heavy: B1 heavy
# chain: B1 chain
# light: B1 light with A31H, Y101L
# notes: one-arm IgG1
# B26: CE115HA000/GLS3000 Y32F one-arm antibody (antibody, human IgG1, kappa, L234A L235A, N297A, name in Kabat numbering)
# heavy: B1 heavy
# chain: B1 chain
# light: B1 light with A31H, Y37F
# notes: one-arm IgG1
# B27: CE115HA000/GLS3000 V94N one-arm antibody (antibody, human IgG1, kappa, L234A L235A, N297A, name in Kabat numbering)
# heavy: B1 heavy
# chain: B1 chain
# light: B1 light with A31H, V99N
# notes: one-arm IgG1
# B28: CE115HA000/GLS3000 V94L one-arm antibody (antibody, human IgG1, kappa, L234A L235A, N297A, name in Kabat numbering)
# heavy: B1 heavy
# chain: B1 chain
# light: B1 light with A31H, V99L
# notes: one-arm IgG1
# B29: CE115HA000/GLS3000 V94K one-arm antibody (antibody, human IgG1, kappa, L234A L235A, N297A, name in Kabat numbering)
# heavy: B1 heavy
# chain: B1 chain
# light: B1 light with A31H, V99K
# notes: one-arm IgG1
# B30: CE115HA000/GLS3000 Y96D one-arm antibody (antibody, human IgG1, kappa, L234A L235A, N297A, name in Kabat numbering)
# heavy: B1 heavy
# chain: B1 chain
# light: B1 light with A31H, Y101D
# notes: one-arm IgG1
# B31: CE115HA000/GLS3000 V94I one-arm antibody (antibody, human IgG1, kappa, L234A L235A, N297A, name in Kabat numbering)
# heavy: B1 heavy
# chain: B1 chain
# light: B1 light with A31H, V99I
# notes: one-arm IgG1
# B32: CE115HA000/GLS3000 Y32D one-arm antibody (antibody, human IgG1, kappa, L234A L235A, N297A, name in Kabat numbering)
# heavy: B1 heavy
# chain: B1 chain
# light: B1 light with A31H, Y37D
# notes: one-arm IgG1
# B33: CE115HA000/GLS3000 Y96E one-arm antibody (antibody, human IgG1, kappa, L234A L235A, N297A, name in Kabat numbering)
# heavy: B1 heavy
# chain: B1 chain
# light: B1 light with A31H, Y101E
# notes: one-arm IgG1
# Biological target: T1, CD3 epsilon homodimer protein (UniProt P07766 23-126)
# T1 construct: also called CD3 (CD3 epsilon)
# Assay: SPR, CD3e homodimer on chip;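 note: surface plasmon resonance at 25 degrees C, antibodies flowed as analyte over CD3 epsilon homodimer amine-coupled to a CM4 chip, running buffer HBS-EP+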
# Protocol: (§1) An appropriate amount of CD3 epsilon homodimer protein was immobilized onto Sensor chip CM4 (GE Healthcare Japan Corp.) by the amine coupling method. Then, the antibody having an appropriate concentration was injected thereto as an analyte and allowed to interact with the CD3 epsilon homodimer protein on the sensor chip. Then, the sensor chip was regenerated by the injection of 10 mmol/L glycine-HCl (pH 1.5). The assay was conducted at 25 degrees C., and HBS-EP+(GE Healthcare Japan Corp.) was used as a running buffer. […] Each parameter was calculated using Biacore T200 Evaluation Software (GE Healthcare Japan Corp.).
# (§2) Specifically, when the amount of the GLS3000-containing antibody bound was defined as X and the amount of the L chain one-amino acid altered form bound was defined as Y, a value of Z (ratio of amounts bound)=Y/X was used.
row,ratio of amounts bound (altered form / unaltered GLS3000 antibody),Binder
1,0.48,B1
2,0.29,B2
3,0.29,B3
4,0.3,B4
5,0.39,B5
6,0.23,B6
7,0.3,B7
8,0.32,B8
9,0.22,B9
10,0.26,B10
11,0.24,B11
12,0.3,B12
13,0.3,B13
14,1.13,B14
15,0.31,B15
16,0.63,B16
17,0.65,B17
18,0.25,B18
19,0.3,B19

# Biological target: T2, CD3 epsilon homodimer protein (UniProt P07766 23-126)
# T2 construct: also called CD3 (CD3 epsilon)
# Assay: SPR (Biacore T200), CD3e homodimer on CM4 chip, antibody as analyte; KD ratio vs unaltered GLS3000;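 note: CD3 epsilon homodimer amine-coupled to the sensor surface, antibodies injected as analyte at 25 °C with HBS-EP+ running buffer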
# T2 sequence (P07766 23-126): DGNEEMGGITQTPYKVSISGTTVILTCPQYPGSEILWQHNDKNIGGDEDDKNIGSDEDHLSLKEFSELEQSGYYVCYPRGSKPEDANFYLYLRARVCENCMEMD
# Protocol: as §1, §2
row,KD ratio to GLS3000 [ratio],Binder
1,62,B20
2,80.3,B21
3,0.86,B22
4,2.74,B23
5,1.16,B24
6,1.84,B25
7,4.51,B26
8,0.96,B27
9,3.06,B28
10,0.91,B29
11,40.9,B30
12,1.46,B31
13,25.9,B32
14,46.8,B33

# From patent publication US20240270846A1 (published 2024)
